Experimental data taken from the Human Domainome abundance scans (Beltran et al. 2025).

B1: Histone-lysine N-methyltransferase 2A, residues 1148 to 1194; numbered along this chain, Q03164 (parent)
chain: KGRRSRRCGQCPGCQVPEDCGVCTNCLDKPKFGGRNIKKQCCKMRKC

Variants of: B1
Test: abundance fitness (aPCA) (normalised: wild type 0, dead -1); higher = more abundant; growth selection in yeast, the domain comes from the species named
Conditions: Homo sapiens

Abundance fitness of substitutions, site by site:
G34: R -0.52, I -0.787, A -0.463, H -1.07, K -0.478, P -0.448, W -0.906, V -0.453, F -0.409, Y -0.774, E -0.133, D -0.236, C -0.32, S -0.288, T -0.316
Q40: D -0.03, E 0.312, N -0.461, K -0.249, A -0.317, C -0.284, P -0.512, F -0.089, G 0.034, M -0.138, L -0.177, I -0.772, H -0.312
I37: Y -0.265, M 0.002, E 0.274, G -0.056, C 0.095, T -0.153, K -0.166, H -0.258, S 0.037, W -0.431, A -0.025, P -0.554, Q -0.024, V 0.02, R -0.421, L -0.159, D 0.265, N 0.093
F32: R -0.496, L -0.327, C -0.286, S -0.185, W -0.337, K -0.39, A -0.013, P -0.257, Y -0.068, E 0.186, H -0.091, N -0.228, T -0.272, I -0.641, Q -0.09, D 0.01
G33: F -1.04, T -0.526, M -0.494, K -0.936, Q -0.535, A -0.394, W -0.853, Y -0.613, R -0.783, N -0.289, P -0.707, V -0.418, C -0.677, L -0.631
K38: A -0.099, I 0.275, W -0.245, L 0.143, M -0.136, G -0.35, D -0.111, E -0.166, R -0.036, Q -0.348, C -0.363, P -0.29, T -0.221, F -0.125, S -0.011
R35: H 0.128, K 0.19, V -0.089, Y -0.036, T -0.016, D 0.168, Q 0.065, N 0.343, C -0.229, M 0.143, W -0.524, G 0.022, F -0.043, P 0.075, A 0.189, S -0.01, I -0.438
N36: W -0.595, K -0.63, A -0.339, F -0.694, Y -0.569, Q 0.151, H -0.076, E 0.003, L -0.651, G -0.091, V -0.814, S -0.523, I -0.952, M -0.274, T -0.731, R -0.672, D 0.134, P -0.62, C -0.344
K39: Y -0.683, M -0.124, H -0.11, S 0.007, N -0.35, W -0.416, G -0.004, R -0.185, A -0.074, Q 0.042, L -0.086, D 0.101, V 0.063, I -0.161, T -0.187, P -0.06, E 0.156, C -0.2
K31: N -0.159, G -0.319, F -0.627, E -0.271, Y -0.253, A -0.195, T -0.264, Q -0.285, R -0.311, W -0.685, L -0.316, M -0.444, I -0.24, H -0.429, S -0.404, P -0.227
P30: S -0.303, R -0.432, W -0.711, T -0.312, V -0.594, Y -0.712
